Test results published in paper PMC6946400.

What was measured:
VASH1 full-length 44 kDa = test: SPR; settings: single-cycle kinetics; HBS-EP: 10 mM Hepes pH 7.4, 150 mM NaCl, 3 mM EDTA, 0.005% surfactant P20 (stated for immobilization); SA chip, Biacore T200, protein 16.25-300 nM, 1:1 …
[1] = test system: VASH1 27-kDa N-terminal part-GST; test: SPR; settings: HBS-EP: 10 mM Hepes pH 7.4, 150 mM NaCl, 3 mM EDTA, 0.005% surfactant P20 (stated for immobilization); SA chip, Biacore T200, protein 16.25-300 nM, 1:1 …

Substance | Kd (VASH1 full-length 44 kDa) [nM] | Kd [1] [nM]
EMCV IRES | 9.6 | 
FGF1 IRES | 6.5 | 2800
VEGFAa IRES | 8 | 
